Target: T1, DNAJB6b wt (human, UniProt O75190-2 1-241)
T1 construct: DNAJB6b, human, the 241-residue b isoform of DNAJB6; No tags; also called wt DNAJB6b; unlabelled DNAJB6b
Test: native gel or EMSA; agarose gel imaged on an IR fluorescence scanner; 5 nM DNAJB6b-CCys-IR680 mixed with unlabelled DNAJB6b-wt to total concentrations of 5 nM to 32 µM
Conditions: both partners purified

T1 sequence (O75190 other isoform, or with tags, fused parts or gaps): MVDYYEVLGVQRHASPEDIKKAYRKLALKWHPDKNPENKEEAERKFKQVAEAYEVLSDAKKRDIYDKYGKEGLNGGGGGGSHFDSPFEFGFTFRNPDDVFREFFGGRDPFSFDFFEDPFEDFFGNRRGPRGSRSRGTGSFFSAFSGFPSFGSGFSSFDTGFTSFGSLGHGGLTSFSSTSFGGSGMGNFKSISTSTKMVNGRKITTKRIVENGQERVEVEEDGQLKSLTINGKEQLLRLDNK

B1: DNAJB6b-CCys-IR680 (natural protein)
chain: not shown
modifications: IRdye-680 (maleimide dye) on the engineered C-terminal cysteine
notes: DNAJB6b, human, the 241-residue b isoform of DNAJB6, no tags; a cysteine residue added at the C-terminus (variant CCys); also called IR680-labelled DBAJB6b; DNAJB6-CCys labelled with IRdye680; source: E. coli BL21 DE3 pLysS star, purified as wt with 1 mM DTT in all buffers; labelled with IRdye680 maleimide, free dye removed by SEC
Does B1 bind?
Result: binds

Reference: article PMC8781954, “High-Efficiency Expression and Purification of DNAJB6b Based on the pH-Modulation of Solubility and Denaturant-Modulation of Size” (Molecules, 2022)
